{
  "source": "the DeepSol protein solubility set",
  "data": [
    {"test": "soluble on expression in E. coli; label from the status in PepcDB or PDB records", "values": [
      {"sequence": "MSLKIADIQVRTEHFPLTRPYRIAFRSIEEIDNLIVEIRTADGLLGLGAASPERHVTGETLEACHAALDHDRLGWLMGRDIRTLPRLCRELAERLPAAPAARAALDMALHDLVAQCLGLPLVEILGRAHDSLPTSVTIGIKPVEETLAEAREHLALGFRVLKVKLCGDEEQDFERLRRLHETLAGRAVVRVDPNQSYDRDGLLRLDRLVQELGIEFIEQPFPAGRTDWLRALPKAIRRRIAADESLLGPADAFALAAPPAACGIFNIKLMKCGGLAPARRIATIAETAGIDLMWGCMDESRISIAAALHAALACPATRYLDLDGSFDLARDVAEGGFILEDGRLRVTERPGLGLVYPDEGHHHHHH", "soluble on expression in E. coli": "soluble"},
      {"sequence": "MSLKIAIVGGPTAVGKTDIMIEVCEEIGAEIISMDSRQIYRYMDIGTAKPTPEQRKRVLHHMIDIIDPDEYYNAFMYRKDSLRAMEDVLRRGKIPVYVGGTGLYADALVRGIFEGVPADENIRKELRELERREPGILRKMLEELDPEAATRIHPNDLKRTIRALEVYMKTGRRISELQKEAKGDDRFFIIVLTRERYELYERINKRVDKMIEMGLVDEVKRLLGMGYSKDLNSMKTIGYKEVIDYLEGKYDFDKMVHLIKRNTRHFARRQIIWFKRYKEAVWYNLTFEDVGEVKEKLKKLIVENFSVEGHHHHHH", "soluble on expression in E. coli": "soluble"},
      {"sequence": "MSLKIGFFIMNIGSAGGTERVSINVANALAKQGYDVSFISIGGNKPFFQVDEKINIYAMNKLPYSLKKDYFSITKKLRELVKELQLDTLIVVDGAIMLFSALALVNLNIKHILWEHYSFNFTGNRLVRTLGKYLAVTTCDKIVTLTEAEKTLWQEKFKTNNIISIANPNTLLPKNKLAKLENKTILSVGHLFSYKGFDYLLKVWQVLAKKYPDWNLKIVGSGEEEENLKNLAKALDIEDSVNFIPRTNDVSFYYESSSIYCLPSQTEGLPLVVIEAMAFGLPIVAFNCSPGVKQLVEHKENGFLCEQNNIEEMVKGLDLLINNPELYLQMSDKSRLMSEDYGIEKIIEEWKGILEGHHHHHH", "soluble on expression in E. coli": "soluble"},
      {"sequence": "MSLKIKDIKVIFTEPDNIRLIIVKILTDQDGLYGVGCATFTQRPNPVKYAIEDYLKPFLIGKEVSNIEDIWQSSYVSSYWRNGPVLNNALSGVDQALWDIKGKMANMPLYDLFGGKTREAAAVYVHSSGDSNEEVGDKMQAFIEQGFHHIRVQVSTPGYSTYGNKSAKAGDKTLNNNDPKLGPIPVTKRVKDYSDGKLYAHPGGVFEPKPYLRSALSLFEYIRDRFGYGIEILHDVHERIPPILGVWFAKEVEKYQLFFLEDLFSPEDNEYFSMVRAQSSTPIAMGELYSSPHEIIPMIKNRLIDFIRIHISDIGGLTPAKKIAAMGEIFGVRTAWHGPGDTSPIGHAANLALDLSCYNFGIQEYSIFGENTKEVFPGCPIVKKGMMWSNDKPGLGIDIDEKLAKKFPFKEREYGGAWDTVRRADGSMVKEGHHHHHH", "soluble on expression in E. coli": "not soluble"},
      {"sequence": "MSLKILICSDTHLGAGEKSHCLKDDCYLAFEEILQQANQEDVDLILHSGDFFDDQNPSKYCLTKTMELMRKYLMGKPKNSFDVAYTYEHNQEDNGFSMNQGIKYPMYVIHGNHDIPSGIEHVAGLDILQTAGLVNFIGKAEDISEIDNKTDQTILHLSPILLQKGTTRIALYGMSYKKNEEMNRLWASSQVQIDEPDGDVFKILLIHQDRILRNTLTTFPEELLKDRFNLIVFGHEHSSQVEEGTDVQIIQTGSSFPLSICEFEKAEKFIGLAHINGMKINMNKIALRNVREVFYEVVQMSQMIEGSANLEMVEHYIREEVQNFFDHVNTHSKTMLPLARIIIEYKSLGCIPNLRKMAFEFEKNIVNKGDCIKLKKKIQKREGHHHHHH", "soluble on expression in E. coli": "soluble"},
      {"sequence": "MSLKILIGEFAVGTDIEKSLIPEGAAMLKTLAESFVRVGHEVCYPSAGTEIGSGTALKSTADSFVQVIEREAKNCDAGLLIAPDGMLPELNRILAENTANLGCSPEAAARCADKLRCTEILKTAGINAPEIVREAEEGKKYVIKPRFGCGAEATYLVSGFENTGEFIASEYIEGEHLSVSLIAGNKPLPLTVNRQFIEFNEKKDGINPENIEVSGIKYNGSLTPYETPRRGELYETAVSAVKYLGCFGYVGVDIVLSEVPYVVDVNPRPTASIFGISRVMREEIGELLLTNRFGTLPDSVRVEGEYHFSKDMLGELFGKNEGHHHHHH", "soluble on expression in E. coli": "soluble"},
      {"sequence": "MSLKILLLVAISCLFVACSNDKEKQQNDVNLSTEASINQSDDMNFKLNLIDGGSISVKKENAVLNFNDEDKVTLFVFFTTWCTPCIAEIPHLNKLQEKYNNDFNIVGVLLEDKSNDEIQKFIEQHKISYKVANGENNYLLAKALGGVNGIPTMFLYNKHSKLINQYLGLIPEEMLEIDIQKAILEGGSHHHHHH", "soluble on expression in E. coli": "soluble"},
      {"sequence": "MSLKINRIVNEGFMKTMLAAYLLGNSTVDLREVAVPTPGINQVLIKMKSSGICGSDVHYIYHQHRATAAAPDKPLYQGFINGHEPCGQIVAMGQGCRHFKEGDRVLVYHISGCGFCPNCRRGFPISCTGKGKAAYGWQRDGGHAEYLLAEEKDLILLPDALSYEDGAFISCGVGTAYEGILRGEVSGSDNVLVVGLGPVGMMAMMLAKGRGAKRIIGVDMLPERLAMAKQLGGMDHGYLATTEGLPQIIAELTHGGADVALDCSGNAAGRLLALQSTADWGRVVYIGETGKVEFEVSADLMHHQRRIIGSWVTSLFHMEKCAHDLTDWKLWPRNAITHRFSLEQAGDAYVLMASGKCGKVVINFPDEGHHHHHH", "soluble on expression in E. coli": "not soluble"},
      {"sequence": "MSLKIRSLHTDALKKLAVKCEDLFMAGQKDQLRFGVDSWSDFRLTSDKPCCEAGDAVYYTASYAKDPLNNYAVKICKSKAKESQQYYHSLAVRQSLAVHFNIQQDCGHFLAEVPNRLLPWEDPDDPEKDEDDMEETEEDAKGETDGKNPKPCSEAASSQKENQGVMSKKQRSHVVVITREVPCLTVADFVRDSLAQHGKSPDLYERQVCLLLLQLCSGLEHLKPYHVTHCDLRLENLLLVHYQPGGTAQGFGPAEPSPTSSYPTRLIVSNFSQAKQKSHLVDPEILRDQSRLAPEIITATQYKKCDEFQTGILIYEMLHLPNPFDENPELKEREYTRADLPRIPFRSPYSRGLQQLASCLLNPNPSERILISDAKGILQCLLWGPREDLFQTFTACPSLVQRNTLLQNWLDIKRTLLMIKFAEKSLDREGGISLEDWLCAQYLAFAEGHHHHHH", "soluble on expression in E. coli": "not soluble"},
      {"sequence": "MSLKISEVATPNFLLDLDQLEKNIDKIQQICTNNNKQLWPMLKTHKSTYIARLQKNAGASGFLVGTLDEGEALIKAGFEDIMLAYPYMGEVNINRIVTMASKINLICATDNIECAKAYSEAFSKSKIECKLLIIVDCGLHRFGVEPEKVVELATEISKLENIKIVGISSHPGQVYGCSSPEGVPDVCVQEDSSMEKAYKALTDNGFNIEIVASGSTPTVESEAACKTITAVRPGNYVYYDAIQIGLGCATEDMCALTVVCTVISKNSSGYYLIDCGSKCLGLDKGAHGNSSIVGYGRVCGHPELTIDSLSEEVGKIKVNGETDIKIGDRIRIIPNHSCSTANLTSNLLGFRGDTIEKVIEVDIRENSEGHHHHHH", "soluble on expression in E. coli": "soluble"},
      {"sequence": "MSLKISKLKKNVVLKNGTIIDPFNNYEKKGDIHIENGKIKAVGKIPTPKSSEIIDCKNLNITHGFFDLHVHFREPGGEDKEDLNSGSLAALAGGFTGVCTMPNTNPPIDSPESIRYIIDRSEECPIYIYPIGSITKSQEGKELTEMGAMLSQGAVAFSDDGLPISDAGVMYNALDYSSMFDVPIINHAEDECLKQDSVMHEGEVSTHLGLPGSPDITESNMVFRDLELSIRAGARIHIPHVSSEKSVNHIKTMKKKSDRITAEVSPHHIFFCDEDLYSFDTNLKVAPPIRTKNDRKALIDALKNGIIDCIATDHAPHTIEEKEGTFDIAPFGMIGLESCFGAVNKVLTKDKKISHLELIKLLTVNPRKIMKLNQDLFKEGTNAEIAIYDPNIEWKFSLENIYSKSNNSPLFKEGHHHHHH", "soluble on expression in E. coli": "not soluble"},
      {"sequence": "MSLKITKLEKKKRLYLMELDNGDKCYITEDTIVRFMLSRDKVISEEELKEIQDFAQFSYGKNLALYHLSFKARTEKEVREYLKKYDIDKNIVSQVIANLKEDKWINDGQYAYAIINTNQLSGDKGPYVLTQKLAQKGISKSTIEENLKEFDFSEVAQRVANKLLKKYEGKLPARALQDKIIQNLTNKGFSYSDAKIAFDDLDSQVDQETTQELIFKELDKQYTKYARKYEGYELKQRLTQVLARKGYDFSDIASALREYLEGHHHHHH", "soluble on expression in E. coli": "soluble"}
    ]}
  ]
}
